# Reference: the supplement of paper PMC10724198
# ± gives the standard deviation of the averaged measurements.
# System: Saccharomyces cerevisiae
# Experiment: protein stability index of tFT-peptide fusion (C-terminal peptide) (PSI (0-1 scale)); higher = more stable (slower turnover)
# Settings: temperature: 30 C
# Description: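 MPS profiling in S. cerevisiae of the yeast C-terminome library: the last 12 aa of each annotated ORF are fused to the C-terminus of a sfGFP-mCherry timer, after a GGGS linker. Cells are FACS-sorted into 8 mCherry/sfGFP bins and deep-sequenced. PSI runs from 0 (unstable) to 1 (stable); wild type and das1Δ backgrounds, two technical replicates each.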
# [1] = genetic background: das1 deletion
Sequence,protein stability index [1],protein stability index (genetic background: wild type)
TFFDIRQKFVVV [BOP2 C-terminal 12 aa],0.493 ± 0.012,0.44744 ± 0.00038
NKVEENLEGLYL [RPT2 C-terminal 12 aa],0.6934 ± 0.0063,0.671 ± 0.015
LSNIITLCRIIV [PEX34 C-terminal 12 aa],0.465 ± 0.0065,0.319 ± 0.0077
SPSPKPQHRRKR [ELO2 C-terminal 12 aa],0.734 ± 0.025,0.704 ± 0.029
YLIKNPGYPIVF [OST6 C-terminal 12 aa],0.621 ± 0.0095,0.6361 ± 0.0047
NYAPHLSDATTS [MAC1 C-terminal 12 aa],0.694 ± 0.013,0.7064 ± 0.0029
DLVKAAAGSDNE [RRP15 C-terminal 12 aa],0.6823 ± 0.0059,0.675 ± 0.018
AKRDILPSPVSV [LPP1 C-terminal 12 aa],0.6165 ± 0.005,0.646 ± 0.04
IFQSAISKAIRG [YBR109W-A C-terminal 12 aa],0.6726 ± 0.0032,0.682 ± 0.0053
PSYAVCDNILVT [YOL013W-B C-terminal 12 aa],0.67 ± 0.04,0.653 ± 0.017
TLVADQEDDVIF [VMA8 C-terminal 12 aa],0.7039 ± 0.0067,0.715 ± 0.025
ELQDALNTELLF [VAC17 C-terminal 12 aa],0.7157 ± 0.0042,0.699 ± 0.0099
VMLLFIFLIMKL [PEP12 C-terminal 12 aa],0.186 ± 0.023,0.198 ± 0.01
RIRQEIIKTKLL [EMP47 C-terminal 12 aa],0.67995 ± 0.00042,0.234 ± 0.032
SLEKLEMSKYGL [YKL033W-A C-terminal 12 aa],0.6995 ± 0.0021,0.6694 ± 0.004
LASDFIGRGYDD [WTM2 C-terminal 12 aa],0.6962 ± 0.0068,0.678 ± 0.011
KVKCALERKPYL [ZAP1 C-terminal 12 aa],0.706 ± 0.05,0.6754 ± 0.00096
KKHSMKSRFKPY [YNL035C C-terminal 12 aa],0.696 ± 0.029,0.712 ± 0.0099
GFIRGSNKFAEV [SMC3 C-terminal 12 aa],0.6866 ± 0.0044,0.6658 ± 0.0058
LSFVLASLNANK [FUN14 C-terminal 12 aa],0.678 ± 0.021,0.67 ± 0.037
IQKLEEARNPQF [UPS1 C-terminal 12 aa],0.704 ± 0.046,0.718 ± 0.034

Sequence,protein stability index [1],protein stability index (genetic background: wild type)
SVTSKFKKYPYK [BET2 C-terminal 12 aa],0.7131 ± 0.0021,0.634 ± 0.026
SKDLGNVLTNLL [ESF2 C-terminal 12 aa],0.6902 ± 0.005,0.679 ± 0.035
AIRTRKFDNNKR [RED1 C-terminal 12 aa],0.716 ± 0.046,0.6648 ± 0.0027
PTTRPYIYEPRK [ELA1 C-terminal 12 aa],0.696 ± 0.011,0.662 ± 0.017
PQGAGRGRGMPM [CCT7 C-terminal 12 aa],0.69 ± 0.0089,0.678 ± 0.034
YANLLYKFWNDQ [PCL7 C-terminal 12 aa],0.735 ± 0.011,0.672 ± 0.021
NEELEKLRPPIT [SIP3 C-terminal 12 aa],0.7001 ± 0.0018,0.716 ± 0.052
LNPIRSLRYCNY [YPP1 C-terminal 12 aa],0.7156 ± 0.0026,0.629 ± 0.024
IRRHAYYNQDDD [SLA2 C-terminal 12 aa],0.677 ± 0.02,0.664 ± 0.0037
LAQQLQQDSEAS [SWC5 C-terminal 12 aa],0.699 ± 0.039,0.701 ± 0.0092
KDEDEEADEDMK [PRE9 C-terminal 12 aa],0.711 ± 0.033,0.694 ± 0.014
PLKDLDPNAFRG [YOX1 C-terminal 12 aa],0.6861 ± 0.006,0.692 ± 0.021
ALLDGFVTAAGY [DAK2 C-terminal 12 aa],0.745 ± 0.027,0.728 ± 0.016
EGIFPANYVELV [LSB3 C-terminal 12 aa],0.7016 ± 0.0045,0.678 ± 0.037
LYPLFEAVPFRR [YBL096C C-terminal 12 aa],0.729 ± 0.014,0.734 ± 0.01
GPSDDDEEDDKK [YGL242C C-terminal 12 aa],0.643 ± 0.043,0.675 ± 0.07
RHHEQSHGQEDH [YLR361C-A C-terminal 12 aa],0.6985 ± 0.0034,0.6868 ± 0.0011
GRVDFQSTSKFT [AIM24 C-terminal 12 aa],0.702 ± 0.036,0.7036 ± 0.0061
RKESSGGCCIIC [RAS1 C-terminal 12 aa],0.738 ± 0.014,0.709 ± 0.011
SSSSFISYPPQR [MAD3 C-terminal 12 aa],0.728 ± 0.019,0.6977 ± 0.0019
IGWSVFAEWLCV [CYK3 C-terminal 12 aa],0.504 ± 0.02,0.5137 ± 0.003

Sequence,protein stability index [1],protein stability index (genetic background: wild type)
EAQLSCSEESLA [COS1 C-terminal 12 aa],0.69057 ± 5e-06,0.683 ± 0.024
KSPSITVNEFFH [RCN2 C-terminal 12 aa],0.698 ± 0.01,0.734 ± 0.021
WVAHSKTKLATK [CAB2 C-terminal 12 aa],0.677 ± 0.014,0.70267 ± 0.00017
PMIKRQCEIIQF [TIP41 C-terminal 12 aa],0.645 ± 0.029,0.676 ± 0.0097
SANGYKRRRYGN [YHC1 C-terminal 12 aa],0.716 ± 0.019,0.732 ± 0.055
GPYWKRVVAFWC [AGP1 C-terminal 12 aa],0.734 ± 0.017,0.549 ± 0.011
DAHIYNKRSKPD [PHO80 C-terminal 12 aa],0.646 ± 0.012,0.662 ± 0.04
PIKLKSDEEMII [YFL040W C-terminal 12 aa],0.707 ± 0.025,0.6724 ± 0.0042
NFFESYRTISCL [YPL038W-A C-terminal 12 aa],0.6408 ± 0.0042,0.3261 ± 0.0021
EASEPFKTFKNT [MMS22 C-terminal 12 aa],0.724 ± 0.0073,0.696 ± 0.0087
TAEPNRNVNQMP [YDL218W C-terminal 12 aa],0.678 ± 0.017,0.662 ± 0.013
GTVNYAGLHDEL [SED4 C-terminal 12 aa],0.687 ± 0.034,0.723 ± 0.044
NRHSYCFSNLAP [YOL085W-A C-terminal 12 aa],0.739 ± 0.0025,0.691 ± 0.023
QEFVCFLFWPLT [YOR335W-A C-terminal 12 aa],0.63 ± 0.0097,0.6034 ± 0.0059
TSNSPSPDLMEK [SMA2 C-terminal 12 aa],0.7018 ± 0.0012,0.705 ± 0.042
DIISAFEEYKNA [SEC3 C-terminal 12 aa],0.714 ± 0.036,0.685 ± 0.026
KSCGNNAGARIC [HO C-terminal 12 aa],0.7093 ± 0.00098,0.452 ± 0.022
VLESFLAPMVNQ [BET5 C-terminal 12 aa],0.688 ± 0.0073,0.71 ± 0.061
ITHLKAILPKYL [CCA1 C-terminal 12 aa],0.695 ± 0.0085,0.324 ± 0.0095
HEKPHTVSLRHK [CPR4 C-terminal 12 aa],0.717 ± 0.013,0.721 ± 0.035
DVEDVERVSKKI [CDC34 C-terminal 12 aa],0.704 ± 0.057,0.67 ± 0.032

Sequence,protein stability index [1],protein stability index (genetic background: wild type)
KAAINQQSTPLN [RPH1 C-terminal 12 aa],0.676 ± 0.016,0.728 ± 0.053
SRFLKRKSHHDK [SEC1 C-terminal 12 aa],0.687 ± 0.0091,0.723 ± 0.049
VFWKLKSRKLRI [MCH1 C-terminal 12 aa],0.692 ± 0.0085,0.418 ± 0.033
LSVKWAVNTLMS [SRP101 C-terminal 12 aa],0.671 ± 0.014,0.568 ± 0.039
YSINPDEIELDI [SYF1 C-terminal 12 aa],0.707 ± 0.025,0.698 ± 0.029
RELGFLFGLNAL [ULS1 C-terminal 12 aa],0.751 ± 0.011,0.6855 ± 0.0018
EEKKKQEEGHSN [MNN4 C-terminal 12 aa],0.699 ± 0.0072,0.663 ± 0.03
GPTIPISATIRE [RCK2 C-terminal 12 aa],0.65756 ± 0.00065,0.735 ± 0.021
QKDSRGKKKIKK [YMR114C C-terminal 12 aa],0.691 ± 0.026,0.63611 ± 0.00024
FVAKEIADDSKK [TIM12 C-terminal 12 aa],0.684 ± 0.016,0.709 ± 0.03
RRDVQSRSSMAC [HFL1 C-terminal 12 aa],0.702 ± 0.02,0.652 ± 0.0097
TSDGSASDLEII [MCM10 C-terminal 12 aa],0.686 ± 0.0096,0.692 ± 0.024
KSLETFRTTNTL [FBA1 C-terminal 12 aa],0.69 ± 0.011,0.7271 ± 0.0061
AGIHPDRAKLLK [NOP6 C-terminal 12 aa],0.68 ± 0.013,0.6934 ± 0.0056
YYYKNSYWPSHI [VPS36 C-terminal 12 aa],0.6935 ± 0.0058,0.701 ± 0.027
ELKRKDALSKKI [COA2 C-terminal 12 aa],0.688 ± 0.048,0.75 ± 0.017
DAFEKAIEAVYA [ARG8 C-terminal 12 aa],0.546 ± 0.014,0.558 ± 0.012
STAVRSIDALKN [HSP31 C-terminal 12 aa],0.701 ± 0.042,0.687 ± 0.0074
VTTTFDKVHQDW [LEU1 C-terminal 12 aa],0.715 ± 0.017,0.714 ± 0.058
